Measured values: US20230190642A1, “GROWTH FACTOR OTIC FORMULATIONS” (OTONOMY, INC., priority 2018, published 2023)

How the values were obtained:
[1] = tested on: Spiral ganglion neurons (SGNs); experiment: Survival of dissociated spiral ganglion neurons (Example C); assay type: cell-based, rat; details: 1 µM; compared to vehicle-only control, 0.01% DMSO; FIG. 6C
Experimental: Spiral ganglion neurons (SGNs) were harvested from P1-P3 rates, dissociated, and cultured in 96-well plates. The SGNs were treated with neurotrophins and/or antibodies at various concentrations. After about 24 hours, media was exchanged to serum-free media and the neurotrophins and/or antibodies were replenished. Cells were cultured for an additional 48-72 hours before being fixed using 4% paraformaldehyde (PFA) and stained using 4′,6-diamidino-2-phenylindole (DAPI). […] Surviving neurons were identified as cells with intact soma and at least one neurite.

tinnitus = details: administered by IV; cited from earlier work
[2] = tested on: Méniére’s disease symptoms; details: infusion into the scala tympani; cited from earlier work
[3] = tested on: noise-induced cochlear synaptopathy; experiment: Noise-induced cochlear synaptopathy in rats (Example G); assay type: in vivo, rat
Experimental: Animals: Male Sprague-Dawley rats (5-6 months of age) were used for efficacy studies and females (2-3 months) were used for pharmacokinetic studies.
Formulations: Human recombinant BDNF was suspended in the thermoreversible polymer Poloxamer 407 (16%) to reach a range of BDNF concentrations.
Intratympanic (IT) injection: Formulations were administered under anesthesia as a single IT injection (20 µl through the tympanic membrane into the middle ear, targeting the round window membrane (RWM).
Noise-induced cochlear synaptopathy: Rats (n= 44 per treatment group) received a single acoustic trauma (105 dB SPL, 8-16 kHz, 1h) under anesthesia. 24 hours later (Day 1) animals received a single bilateral IT injection of the treatment regimens. Auditory function (ABR and ABR wave 1 amplitude) was monitored at day 1 and then every 7 days for 28 days. At termination (Day 28), cochleae were collected and assessed for evidence of cochlear synaptopathy (IHC synaptic puncta counts).
Immunohistochemistry: Dissected cochleae were immunostained with antibodies against presynaptic (CtBP2) and postsynaptic (GluR2) proteins and MyosinVIIa to label hair cells. Cochleae were then frequency mapped and high-magnification images were obtained with a Zeiss LSM-880 confocal microscope and imaged at an interval of 0.35 µm.
Intratympanic BDNF improves Auditory Brainstem Response (ABR) thresholds and wave I amplitudes in adult rats. The Auditory Brainstem Response (ABR) is an objective test that measures hearing sensitivity and can identify abnormalities in the peripheral auditory system and the auditory pathway up through the brainstem. Adult male rats were bilaterally exposed to noise followed by an intratympanic injection of 0.05 mg/ml BDNF in P407 24 hours after noise exposure. ABR recordings were obtained at days 1, 7, 14, and 28.

SGNs = experiment: SGN complexity, dissociated SGNs (Example D); assay type: cell-based, rat; details: compared to IgG-treated control, FIG. 7D
Description: SGNs were immunostained, imaged, and batch analyzed with PerkinElmer Harmony 4.6 software. Changes in the complexities of SGNs upon treatment with various agents were examined. […] All of the images in a single well were stitched together and analyzed. SGN somas are shown in the upper right panel and SGN neurites are shown in the lower left panel. As shown in the lower right panel, each neurite tree is assigned to a single cell for analysis. Depending on the stitching, occasionally neurites will not meet the criteria due to gaps that exceed a user-defined threshold.

noise exposed adult rats = experiment: Noise-induced hearing loss / synaptopathy in rats (Example A1); assay type: in vivo, rat
Experimental: Poloxamer 407 gel at 16% was prepared using the cold method. In brief, a 16% w/w stock solution of poloxamer 407 was prepared by slowly adding it to a cold buffer solution (10 mM PBS, pH 7.4). Sterilization was achieved by filtration. Human recombinant BDNF was suspended with an appropriate amount of poloxamer 407 solution to reach a range of concentration of 0.05 to 5.0 mg/ml BDNF.
Male rats (Charles River) approximately 10-11 months of age served as subjects (N = 6 per group). Prior to any procedures, animals were anesthetized using a combination of xylazine (10 mg/kg) and ketamine (90 mg/kg) for up to one hour via the intraperitoneal route. If needed, an intraoperative booster was administered intraperitoneally representing one-tenth of the original dose. […]
Auditory Brainstem Response (ABR) assessment (wave 1) - During the procedure, additional anesthetic (xylazine and ketamine) was administered if needed to maintain the depth of anesthesia sufficient to insure immobilization and relaxation. ABRs were recorded in an electrically and acoustically shielded chamber, one ear at a time. […] Acoustic calibration was performed with TDT software (SigCal) and thresholds were expressed as dB SPL in conditions identical to that of threshold recordings in animals. […] Wave 1 was quantified by averaging the wave 1 amplitude from intensities ranging between 60-80 dB SPL. […]

OCCN(CCO)c1ccc(C(c2ccc(Cl)cc2)c2ccc(N(CCO)CCO)cc2)cc1 [LM22b10]
Survival of SGNs [1]: not improved

CCN(CC)CC(=O)Nc1c(C)cccc1C [Lidocaine]
sufferers in whom the noise associated with tinnitus is reduced or eliminated (tinnitus): 60-80%

Cc1ccccc1C(=O)Nc1ccc(C(=O)N2CCCC(N(C)C)c3ccccc32)cc1 (stereo not drawn) [OPC-31260]
Méniére’s disease symptoms [2]: marked reduction

B1: brain-derived neurotrophic factor (protein, UniProt P23560 19-247, looked up)
Neurotrophic factor BDNF …: APMKEANIRGQGGLAYPGVRTHGTLESVNGPKAGSRGLTSLADTFEHVIEELLDEDQKVRPNEENNKDADLYTSRVMLSSQVPLEPPLLFLLEEYKNYLDAANMSMRVRRHSDPARRGELSVCDSISEWVTAADKKTAVDMSGGTVTVLEKVPVSKGQLKQYFYETKCNPMGYTKEGCRGIDKRHWNSQCRTTQSYVRALTMDSKKRIGWRFIRIDTSCVCTLTIKRGR
notes: Human recombinant BDNF; neurotrophin, Trk agonist on spiral ganglion neurons
ABR wave I amplitudes ([3]; adult male rats, BDNF or vehicle treatment following noise exposure, across many frequencies, FIG. 12C): Significant improvements
recovery of initial ABR threshold shifts ([3]; adult male rats, intratympanic 0.05 mg/ml BDNF in P407 24 hours after noise exposure, ABR at days 1, 7, 14, 28, vs P407 vehicle, FIG. 12A): more rapid recovery
levels of hearing loss ([3]; adult male rats, intratympanic 0.05 mg/ml BDNF in P407 24 hours after noise exposure, vs P407 vehicle): reduced
synaptic puncta (co-expression of CtBp2 and GluR2) per inner hair cell ([3]; adult rats after noise damage, each frequency region throughout the cochlea, FIG. 13C): increased
cochlear synaptopathy ([3]; adult rats, intratympanic BDNF): repairs
total neurite length, total number of extremities, segments, and nodes per cell (differences) (SGNs): not statistically significant
hearing function (wave I amplitude) (noise exposed adult rats; single intratympanic 0.005% BDNF in Poloxamer 407 24 hrs after noise, compared to vehicle, FIG. 3A): improved hearing function
number of ribbon synapses per inner hair cell (noise exposed adult rats; single intratympanic 0.005% BDNF in Poloxamer 407, Day 28, compared to vehicle, FIG. 3B): increased

B2: neurotrophin-3 (protein, UniProt P20783 139-257, looked up)
Neurotrophin-3: YAEHKSHRGEYSVCDSESLWVTDKSSAIDIRGHQVTVLGEIKTGNSPVKQYFYETRCKEARPVKNGCRGIDDKHWNSQCKTSQTYVRALTSENNKLVGWRWIRIDTSCVCALSRKIGRT
notes: neurotrophin; Trk agonist on spiral ganglion neurons
total neurite length, total number of extremities, segments, and nodes per cell (differences) (SGNs): not statistically significant
